This passage reports P2 score, fold affinity over an otherwise identical peptide with a different P1 and P1 score results from US20230220589A1.

The chains are these.
B1: SEQ ID NO 24 (designed binder, not shown: small tags and cut ends; large carriers)
chain: QVSVQPNFQQDKFLGRWFYAGLASNSSWLREKCAALSSAKAVVAPATDGGLNVTETWLRKNQCETGTELLQPAGSLGSYSFRSPHRGSTLSLSVVETDYDQYALLYRQGSKGPGEDERRALLMSRTQTPRAELKEKFTAFSKAQGFTEDTIVFLPQTDKCMTEQ
B2: SEQ ID NO 25 (designed binder, not shown: small tags and cut ends; large carriers)
chain: QVSVQPNFQQDKFLGRWFIAGLASNSSWVREKSAALSQAKVVVAPATDGGLNVTVTVLRKNQCETYTVLLQPAGSLGSYSSRSPHFGSTVSLSVVETDYDQYALWYAQGSKGPGEDMRHAELWSRTQTPRAELKEKFTAFSKAQGFTEDTIVFLPQTDKCMTEQ
B3: SEQ ID NO 38 (designed binder, not shown: small tags and cut ends; large carriers)
chain: QVSVQPNFQQDKFLGRWFPAGFASNSSWDREKPAALSLAKMVVAPATDGGLNWTETYLRKNQCETTTHLLQPAGSLGSYSYRSPHFGSTRSLSVVETDYDQYALFYSQGSKGPGEDHRGAWLLSRTQTPRAELKEKFTAFSKAQGFTEDTIVFLPQTDKCMTEQ
B4: SEQ ID NO 26 (designed binder, not shown: small tags and cut ends; large carriers)
chain: QVSVQPNFQQDKFLGRWFAAGYASNSSWRRERSAALSMAKVVVAPATDGGLNWTETILRKNQCETATNLLQPAGSLGSYSIRSPHAGSTSSMSVVETDYDQYALLYAQGSKGPGEDFRLAILLSRTQTPRAELKEKFTAFSKAQGFTEDTIVFLPQTDKCMTEQ
B5: SEQ ID NO 46 (designed binder, not shown: small tags and cut ends; large carriers)
chain: TVPDRSEIAGKWYVVALASNTEFHLREKDNLKVAMARISFLGEDELKVSEAVPTPNGCMKHESTWKKTSDDGEVYRSRKAKQKVEVLDTDYKSYAVIYATRVKDGRTHHWMLLYSRSPEVSPAATAIFRKLAGERNYTDEMVAMLPRQEECTVDEV
B6: SEQ ID NO 39 (designed binder, not shown: small tags and cut ends; large carriers)
chain: QVSVQPNFQQDKFLGRWFLAGLASNSSWAREKIAALSDAKFVVAPATDGGLNGTVTVLRKNQCETATGLLQPAGSLGSYSWRSPHDGSTLSLSVVETDYDQYALVYEQGSKGPGEDLRIAALWSRTQTPRAELKEKFTAFSKAQGFTEDTIVFLPQTDKCMTEQ
B7: SEQ ID NO 22 (designed binder, not shown: small tags and cut ends; large carriers)
chain: QVSVQPNFQQDKFLGRWFTAGLASNSSWLREKFAALSHAKTVVAPATDGGLNLTVTVLRKNQCETSTLLLQPAGSLGSYSRRSPHVGSTGSVSVVETDYDQYALIYDQGSKGPGEDWRIAELVSRTQTPRAELKEKFTAFSKAQGFTEDTIVFLPQTDKCMTEQ
B8: SEQ ID NO 47 (designed binder, not shown: small tags and cut ends; large carriers)
chain: TVPDRSEIAGKWYVVALASNTEFFLREKDNFKMAMARISFLGEDELKVSEAVPTPNGCFKAEFTGKKTSDDGEVYWSQTAKYKVEVLDTDYKSYAVIYATNVKDGRTVHAMNLYSRSPEVSPAATAIFRKLAGERNYTDEMVAMLPRQEECTVDEV
B9: SEQ ID NO 37 (designed binder, not shown: small tags and cut ends; large carriers)
chain: QDSTQNLIPAPPLISVPLQPGFWTERFQGRWFLVGLAGNAVQKERQSRRTMSSLILELQEDNSYNETWINVRGQGCRYRIGTVVPSSRPGQFTLGNIHSYPQIQSLDVQVADTDYDQFAMVFTQFTSENKQYFYVRLMGRTKGLSDELKERFVSFAKSLGLKDNNIVFSVPTDQCIDN
B10: SEQ ID NO 28 (designed binder, not shown: small tags and cut ends; large carriers)
chain: QVSVQPNFQQDKFLGRWFLAGMASNSSWMREKFAALSVAKFVVAPATDGGLNTTTTLLRKNQCETFTRLLQPAGSLGSYSSRSPHLGSTVSGSVVETDYDQYALLYEQGSKGPGEDGRKAWLGSRTQTPRAELKEKFTAFSKAQGFTEDTIVFLPQTDKCMTEQ
B11: SEQ ID NO 29 (designed binder, not shown: small tags and cut ends; large carriers)
chain: QVSVQPNFQQDKFLGRWFVAGVASNSSWMREKVAALSGAKVVVAPATDGGLNYTETWLRKNQCETWTGLLQPAGSLGSYSQRSPHGGSTNSLSVVETDYDQYALLYVQGSKGPGEDPRVAVLWSRTQTPRAELKEKFTAFSKAQGFTEDTIVFLPQTDKCMTEQ
B12: SEQ ID NO 30 (designed binder, not shown: small tags and cut ends; large carriers)
chain: QDSTQNLIPAPPLISVPLQPGFWTERFQGRWFNVGIAGNAVQKERQSRFTMLSLISELQEDNSYNWTLISVRGQGCRYRILTWVPSSRPGQFTLGNIHSYPQIQSLDVQVADTDYDQFAMVFAQGTSENKQYFEVILMGRTKGLSDELKERFVSFAKSLGLKDNNIVFSVPTDQCIDN
B13: SEQ ID NO 43 (designed binder, not shown: small tags and cut ends; large carriers)
chain: TVPDRSEIAGKWYVVALASNTEFVLREKDWLKLAMARISFLGEDELKVSMTTPGPNGCTKWERTLKKTSDDGEVYSSPRAKEKVEVLDTDYKSYAVIYATAVKDGRTLHEMWLYSRSPEVSPAATAIFRKLAGERNYTDEMVAMLPRQEECTVDEV
B14: SEQ ID NO 32 (designed binder, not shown: small tags and cut ends; large carriers)
chain: QDSTQNLIPAPPLISVPLQPGFWTERFQGRWFSVGMAGNAVQKERQSRFTMGSCIMELQEDNSYNLTFIGVRGQGCRYRILTWVPSSRPGQFTLGNIHSYPQIQSADVQVADTDYDQFAMVFWQTTSENKQYFAVELWGRTKGLSDELKERFVSFAKSLGLKDNNIVFSVPTDQCIDN
B15: SEQ ID NO 23 (designed binder, not shown: small tags and cut ends; large carriers)
chain: QVSVQPNFQQDKFLGRWFLAGAASNSSWLREKNAALSYAKLVVAPATDGGLNSTVTRLRKNQCETETRLLQPAGSLGSYSWRSPHLGSTLSLSVVETDYDQYALVYAQGSKGPGEDVRGAELLSRTQTPRAELKEKFTAFSKAQGFTEDTIVFLPQTDKCMTEQ
B16: SEQ ID NO 44 (designed binder, not shown: small tags and cut ends; large carriers)
chain: TVPDRSEIAGKWYVVALASNTEFFLREKDRIKTAMARISFLGEDELKVSLARPAPNGCHKAEWTFKKTSDDGEVYTSFLAKFKVEVLDTDYKSYAVIYATPVKDGRTRHEMLLYSRSPEVSPAATAIFRKLAGERNYTDEMVAMLPRQEECTVDEV
B17: SEQ ID NO 36 (designed binder, not shown: small tags and cut ends; large carriers)
chain: QDSTQNLIPAPPLISVPLQPGFWTERFQGRWFIVGAAGNAVQKERQSRVTMGSVIWELQEDNSYNLTFISVRGQGCRYWIETWVPSSRPGQFTLGNIHSYPQIQSADVQVADTDYDQFAMVFVQYTSENKQYFMVRLLGRTKGLSDELKERFVSFAKSLGLKDNNIVFSVPTDQCIDN
B18: SEQ ID NO 40 (designed binder, not shown: small tags and cut ends; large carriers)
chain: QVSVQPNFQQDKFLGRWFYAGLASNSSWIREKYAALSLAKSVVAPATDGGLNWTETSLRKNQCETGTVLLQPAGSLGSYSLRSPHHGSTISVSVVETDYDQYALVYRQGSKGPGEDSRRAILMSRTQTPRAELTEKFTAFSKAQGFTEDTIVFLPQTDKCMTEQ
B19: SEQ ID NO 41 (designed binder, not shown: small tags and cut ends; large carriers)
chain: QVSVQPNFQQDKFLGRWFYAGMASNSSWLREKSAALSAAKFVVAPATDGGLNFTETFLRKNQCETTTILLQPAGSLGSYSVRSPHVGSTVSISVVETDYDQYALFYVQGSKGPGEDNRMALLGSRTQTPRAELKEKFTAFSKAQGFTEDTIVFLPQTDKCMTEQ
B20: SEQ ID NO 52 (designed binder, not shown: small tags and cut ends; large carriers)
chain: QIPLCANLVPVPITNATLDRITGKWFIIASASRNEEYNKSVQQAQSTAFYITPNKTEDTIFLRRYQTRQNQCFYNSSYLNVQRENGTVSYYRGGRERVSHLLFLRDTKTLMIGSYLDDEKNWGLVFGADKPETTKEQLGEFYEALDCLRIPRSDVMYTDWKKDKCEPLEKQHEKERKQEEGES
B21: SEQ ID NO 55 (designed binder, not shown: small tags and cut ends; large carriers)
chain: QIPLCANLVPVPITNATLDRITGKWFRIASAFRNEEYKKSVQEVQTTSFYFTPNKTEDTIFARFYQTRQNQCFYNSSYLNVQRENGTVSLYSGGREAVLHLLFLRDTKTLMLGVYLDDEKNWGLSFYADKPETTKEQLGEFYEALDCLRIPRSDVMYTDWKKDKCEPLEKQHEKERKQEEGES
B22: SEQ ID NO 56 (designed binder, not shown: small tags and cut ends; large carriers)
chain: QIPLCANLVPVPITNATLDRITGKWFLIASAIRNEEYNKSVQAVQSTAFYWTPNKTEDTIFARYYQTRQNQCFYNSSYLNVQRENGTVSWYAGGREFVSHLLFLRYTKTLMWGGYLDDEKNWGLEFYADKPETTKEQLGEFYEALDCLRIPRSDVMYTDWKKDKCEPLEKQHEKERKQEEGES

The target in one assay is M44-modified L NTAA target peptides (M44-L-P2-peptide). As to the kind of experiment: Gini coefficient of P2 tolerance from multiplex encoding heatmap.
B1 displayed a P2 score of 0.375.

The molecule B2 gave a P2 score of 0.543.

Consider B3, for which the P2 score turned out to be 0.251. As for B4, the P2 score came out at 0.498.

With B5, the P2 score is 0.289. Still for that read-out and setting: next, B6: 0.426; B7: 0.431.

For a further assay, the target named is M44-modified A NTAA target peptides (M44-A-P2-peptide). The description is as above.
As to B8, the P2 score came out at 0.466. Same read-out and setting: next, B9: 0.195.

In a further assay the target is M48-modified F NTAA target peptides (M48-F-P2-peptide). The description is as above.
B10 displayed a P2 score of 0.318. In turn, B11 had a P2 score of 0.387.

The target in another assay is M44-modified F NTAA target peptides (M44-F-P2-peptide). The assay is described as above.
B12 showed a P2 score of 0.378. Same read-out and setting: next, B13: 0.359; B14: 0.379. For B15, the P2 score was found to be 0.456.

In turn, B16 showed a P2 score of 0.485.

For a further assay, the target named is M44-modified I NTAA target peptides (M44-I-P2-peptide). Described as above.
In turn, B17 registered a P2 score of 0.197. Take B18: the P2 score came out at 0.144.

B19 registered a P2 score of 0.217.

In a further assay the target is M90-modified W NTAA target peptide. As to the kind of experiment: affinity comparison between P1 residues (method not specified; BLI / encoding assay).
Take B20: the fold affinity over an otherwise identical peptide with a different P1 is > 2 fold.

The target in a further assay is M90-modified H NTAA target peptide. The description is as above.
For the molecule B21, the fold affinity over an otherwise identical peptide with a different P1 was found to be 2 fold.

The target in the next assay is M90-modified M NTAA target peptide. Described as above.
Regarding B22, the fold affinity over an otherwise identical peptide with a different P1 was > 2 fold.

The next assay deals with M44-modified L NTAA target peptides (M44-L-P2-peptide). As to the kind of experiment: Gini coefficient of P1 selectivity from multiplex encoding heatmap.
In turn, B1 yielded a P1 score of 0.452. B2: the P1 score came out at 0.478. Molecule B3 showed a P1 score of 0.403. For B4, the P1 score is 0.501. As to B5, the P1 score came out at 0.225. As for B6, the P1 score came to 0.286. Same read-out and setting: under B7 stands 0.418.

The target of another assay is M44-modified A NTAA target peptides (M44-A-P2-peptide). Described as above.
Regarding B8, the P1 score was determined as 0.173. Still for that read-out and setting: under B9 stands 0.319.

A further assay deals with M48-modified F NTAA target peptides (M48-F-P2-peptide). The description is as above.
In turn, B10 gave a P1 score of 0.392. B11 displayed a P1 score of 0.189.

For a further assay, the target named is M44-modified F NTAA target peptides (M44-F-P2-peptide). The assay is described as above.
In the case of B12, the P1 score was 0.433. For B13, the P1 score turned out to be 0.408. Still for that read-out and setting: under B14 stands 0.173. B15 displayed a P1 score of 0.387.

Consider B16, for which the P1 score was 0.241.

The target of another assay is M44-modified I NTAA target peptides (M44-I-P2-peptide). Described as above.
In the case of B17, the P1 score was 0.326. Take B18: the P1 score stood at 0.357. The molecule B19 showed a P1 score of 0.323.
